From publication PMC9513430

Target: Type I collagen
Assay: adhesion of whole bacteria to a coated plate (crystal violet staining); type I collagen (0.002-2 mg in 0.25 M acetic acid) coated on 96-well plates overnight at 4°C, blocked with BSA; overnight cultures of S. mutans (1 x 10^8-1 x 10^10 CFU) 3 h at 37°C; fixed, stained with crystal violet, OD595; percent of parental strain SN74

Substance: Cnm of Streptococcus mutans strain TW871, expressed in complemented strain SN74CNDcomp (natural protein)
- percent of the collagen binding of parental strain SN74: 60%
